# Laboratory results published in publication PMC5823869.
# Biological target: YAP2L/TAZ in cells
# Assay: non-reducing SDS-PAGE with immunoblot; cell lysates (15 µg of transfected HEK293; 30 µg of H460 for endogenous TAZ) in SDS sample buffer without DTT, 3 min at 60 °C; blot with anti-FLAG, anti-HA or anti-TAZ; series with increasing DTT run beside
substance,measurement,value
YAP2L/TAZ in cells,percent of the total protein that is dimer,20 to 30%
